Reference: the MegaScale stability set (Tsuboyama et al. 2023)

B1: EEHEE_rd3_0130 (parent)
chain: TKIIVNGKTFTAPTEEEAQKIAEKLAKKAGLTVHKKNGTFELK

Variants of: B1
Assay: folding stability dG (cDNA display proteolysis); higher = more stable
Settings: PBS, room temperature

Which “folding stability dG” value does the source give for TKIIVNGKTFTAPTEEEAQKDAEKLAKKAGLTVHKKNGTFELK [I21D] here?
The value was -0.719 kcal/mol.

Which “folding stability dG” value does the source give for TKIIVNGKTFTAPTEEEAQKQAEKLAKKAGLTVHKKNGTFELK [I21Q] here?
The value was -0.043 kcal/mol.

With TKIIVNGKTITAPTEEEAQKIAEKLAKKAGLTVHKKNGTFELK [F10I] as the variant, how does the “folding stability dG” value read?
The value was 0.454 kcal/mol.

For TKIIVNGKTFTAPTEEEAQKIAEKLAKKAGLTVHKKNGTFRLK [E41R], which “folding stability dG” value is on record?
Its value is -0.631 kcal/mol.

With TKIIVNGKTFTAPTEEEAQKIAELLAKKAGLTVHKKNGTFELK [K24L] as the variant, how does the “folding stability dG” value read?
The value was 1.11 kcal/mol.

For TKIIVNGKTFTAPTEEEAQKIAEMLAKKAGLTVHKKNGTFELK [K24M], which “folding stability dG” value is on record?
Its value is 1.14 kcal/mol.

With TKIIVNGKTFTAPTEEEAQKIAEWLAKKAGLTVHKKNGTFELK [K24W] as the variant, how does the “folding stability dG” value read?
Its value is 1.78 kcal/mol.

Which “folding stability dG” value does the source give for TKIIVNGKTFTAPTEEEQQKIAEKLAKKAGLTVHKKNGTFELK [A18Q] here?
The value was -0.715 kcal/mol.

Which “folding stability dG” value does the source give for TKIIVNGKTFTAPTEEESQKIAEKLAKKAGLTVHKKNGTFELK [A18S] here?
Its value is -0.692 kcal/mol.

With TKIIVNGKTFTAPTEEEAQKIAEKLAKKAGLTVHKTNGTFELK [K36T] as the variant, how does the “folding stability dG” value read?
The value was 1.02 kcal/mol.

For TKIIVNGKTFTAPTEEEAQKIAEKLAKKAGLTVHKSNGTFELK [K36S], which “folding stability dG” value is on record?
The value was 0.956 kcal/mol.

For TKIIVNGKTFTAPTEEEAQKIAEKLAKKAGLTVHKPNGTFELK [K36P], which “folding stability dG” value is on record?
Its value is -0.983 kcal/mol.

With TKIIVNGKTFTAPTEEEAQKIAEKLAKKAGLTVHKDNGTFELK [K36D] as the variant, how does the “folding stability dG” value read?
Its value is 0.477 kcal/mol.

With TKIIVNGKTFTAPTEEEAQKIAEKLAKKAGLTVHKVNGTFELK [K36V] as the variant, how does the “folding stability dG” value read?
The value was 1.52 kcal/mol.

For TKIIVNGKTFTAPTEEEAQKIAEKLAKKAGLTVHKNNGTFELK [K36N], which “folding stability dG” value is on record?
Its value is 1.03 kcal/mol.

Which “folding stability dG” value does the source give for TKIIVNYKTFTAPTEEEAQKIAEKLAKKAGLTVHKKNGTFELK [G7Y] here?
The value was 0.159 kcal/mol.

For TKIIVNTKTFTAPTEEEAQKIAEKLAKKAGLTVHKKNGTFELK [G7T], which “folding stability dG” value is on record?
The value was -0.032 kcal/mol.

For TKIIVNGKTFTAPTEEEAQKIAEKLAKKAGLTVHKKRGTFELK [N37R], which “folding stability dG” value is on record?
Its value is -0.324 kcal/mol.

With TKIIVNGKTFTAPTEEEAQKIAEKLAKKAGLTVHKKQGTFELK [N37Q] as the variant, how does the “folding stability dG” value read?
Its value is 0.281 kcal/mol.

For TKIIVNGKTFTAPTEEEAQKIAEKLAKKAGLTVHKKFGTFELK [N37F], which “folding stability dG” value is on record?
Its value is -0.371 kcal/mol.

With AKIIVNGKTFTAPTEEEAQKIAEKLAKKAGLTVHKKNGTFELK [T1A] as the variant, how does the “folding stability dG” value read?
Its value is 0.581 kcal/mol.

With VKIIVNGKTFTAPTEEEAQKIAEKLAKKAGLTVHKKNGTFELK [T1V] as the variant, how does the “folding stability dG” value read?
Its value is 1.28 kcal/mol.

With LKIIVNGKTFTAPTEEEAQKIAEKLAKKAGLTVHKKNGTFELK [T1L] as the variant, how does the “folding stability dG” value read?
The value was 0.508 kcal/mol.

For MKIIVNGKTFTAPTEEEAQKIAEKLAKKAGLTVHKKNGTFELK [T1M], which “folding stability dG” value is on record?
The value was 0.565 kcal/mol.

For PKIIVNGKTFTAPTEEEAQKIAEKLAKKAGLTVHKKNGTFELK [T1P], which “folding stability dG” value is on record?
The value was 0.553 kcal/mol.

With QKIIVNGKTFTAPTEEEAQKIAEKLAKKAGLTVHKKNGTFELK [T1Q] as the variant, how does the “folding stability dG” value read?
Its value is 0.151 kcal/mol.

Which “folding stability dG” value does the source give for TKIIVNGKTFTAPTEEEAQKIARKLAKKAGLTVHKKNGTFELK [E23R] here?
Its value is 0.794 kcal/mol.

Which “folding stability dG” value does the source give for TKIIVNGKTFTAPTEEEAQKIACKLAKKAGLTVHKKNGTFELK [E23C] here?
The value was 1.52 kcal/mol.

With TKIIVNGKTFTAPTEEEAQKIAHKLAKKAGLTVHKKNGTFELK [E23H] as the variant, how does the “folding stability dG” value read?
The value was 0.803 kcal/mol.

With TKIIVNGKTFTAPTEEEAQKIAEKLAKKYGLTVHKKNGTFELK [A29Y] as the variant, how does the “folding stability dG” value read?
Its value is 3.33 kcal/mol.

For TKIIVNGKTFTAPTEEEAQKIAEKLAKKSGLTVHKKNGTFELK [A29S], which “folding stability dG” value is on record?
The value was 0.857 kcal/mol.

Which “folding stability dG” value does the source give for TKIIVNGKTFTAPTEEEAQKIAEKLAKKMGLTVHKKNGTFELK [A29M] here?
Its value is 2.08 kcal/mol.

Which “folding stability dG” value does the source give for TKITVNGKTFTAPTEEEAQKIAEKLAKKAGLTVHKKNGTFELK [I4T] here?
The value was 0.449 kcal/mol.

With TKIGVNGKTFTAPTEEEAQKIAEKLAKKAGLTVHKKNGTFELK [I4G] as the variant, how does the “folding stability dG” value read?
The value was -0.461 kcal/mol.

Which “folding stability dG” value does the source give for TKIIVNGKTFTAPTEEWAQKIAEKLAKKAGLTVHKKNGTFELK [E17W] here?
The value was 0.923 kcal/mol.

For TKIIVNGKTFTAPTEEEAQKIAEKLAKKAGKTVHKKNGTFELK [L31K], which “folding stability dG” value is on record?
The value was -0.636 kcal/mol.

Which “folding stability dG” value does the source give for TKIIVNGKTFTAPTEEEAQKIAEKLAKKAGETVHKKNGTFELK [L31E] here?
The value was -0.89 kcal/mol.

For TKIIVNGKTFTAPTEEEAQKIAEKLAKKAGGTVHKKNGTFELK [L31G], which “folding stability dG” value is on record?
Its value is -0.504 kcal/mol.

For TKIIVNGKTFTAPTEEEAQKIAEKLAKKAGFTVHKKNGTFELK [L31F], which “folding stability dG” value is on record?
The value was 0.713 kcal/mol.

With TKQIVNGKTFTAPTEEEAQKIAEKLAKKAGLTVHKKNGTFELK [I3Q] as the variant, how does the “folding stability dG” value read?
The value was -0.664 kcal/mol.

With TKPIVNGKTFTAPTEEEAQKIAEKLAKKAGLTVHKKNGTFELK [I3P] as the variant, how does the “folding stability dG” value read?
Its value is -0.552 kcal/mol.

With TKIIVNGKTFTAPTEEEAQKIAEKLAKKAGLTVHKKNGTAELK [F40A] as the variant, how does the “folding stability dG” value read?
Its value is -0.34 kcal/mol.

Which “folding stability dG” value does the source give for TKIIVNGKTFTAPTEEEAQKIAEKLAKKAGLTVHKKNGTPELK [F40P] here?
Its value is 0.146 kcal/mol.

With TKIIVNGKTFTAPTEEEAQKIAEKLAKKAGLTVHKKNGTLELK [F40L] as the variant, how does the “folding stability dG” value read?
The value was 0.724 kcal/mol.

With TKIIWNGKTFTAPTEEEAQKIAEKLAKKAGLTVHKKNGTFELK [V5W] as the variant, how does the “folding stability dG” value read?
Its value is 1.48 kcal/mol.

For TKIIGNGKTFTAPTEEEAQKIAEKLAKKAGLTVHKKNGTFELK [V5G], which “folding stability dG” value is on record?
The value was -0.75 kcal/mol.

Which “folding stability dG” value does the source give for TKIIVNGKTFTAPTEEEAQMIAEKLAKKAGLTVHKKNGTFELK [K20M] here?
The value was 0.854 kcal/mol.

With TKIIVNGKTFTAPTEEEAQDIAEKLAKKAGLTVHKKNGTFELK [K20D] as the variant, how does the “folding stability dG” value read?
Its value is 0.538 kcal/mol.

With TKIIVNGKTFTAPTEEEAQEIAEKLAKKAGLTVHKKNGTFELK [K20E] as the variant, how does the “folding stability dG” value read?
The value was 0.663 kcal/mol.

Which “folding stability dG” value does the source give for TKIIVNGKTFTAPTEEEAQQIAEKLAKKAGLTVHKKNGTFELK [K20Q] here?
Its value is 0.722 kcal/mol.

Which “folding stability dG” value does the source give for TKIIVNGKTFTAPTEEEAQPIAEKLAKKAGLTVHKKNGTFELK [K20P] here?
Its value is -0.378 kcal/mol.

For TKIIVNGKTFTAPTEEEAQKIAEKLAKKAGLTVSKKNGTFELK [H34S], which “folding stability dG” value is on record?
Its value is 0.682 kcal/mol.

With TKIIVNGKTFTAPTEEEAQKIAEKLAKKAGLTVHKKNGTFELD [K43D] as the variant, how does the “folding stability dG” value read?
Its value is 0.338 kcal/mol.

With TKIIVNGKTFTAPTEEEAQKIAEKLAKKAGLTVHKKNGTFELH [K43H] as the variant, how does the “folding stability dG” value read?
Its value is 0.826 kcal/mol.

For TKIIVNGKTFNAPTEEEAQKIAEKLAKKAGLTVHKKNGTFELK [T11N], which “folding stability dG” value is on record?
Its value is 0.328 kcal/mol.

With TKIIVNGKTFAAPTEEEAQKIAEKLAKKAGLTVHKKNGTFELK [T11A] as the variant, how does the “folding stability dG” value read?
The value was 0.154 kcal/mol.

With TKIIVNGKTFTAPTEEEAQKIAEKLAKKAGLTVHPKNGTFELK [K35P] as the variant, how does the “folding stability dG” value read?
The value was -0.427 kcal/mol.

For TKIIVNGKTFTAPTEEEAQKIAEKLAKKAGLTVHTKNGTFELK [K35T], which “folding stability dG” value is on record?
Its value is 0.197 kcal/mol.

For TKIIVNGKTFTAPTEEEAQKIAEKLAKKAGLTVHEKNGTFELK [K35E], which “folding stability dG” value is on record?
Its value is 0.03 kcal/mol.
